Experimental data reported in patent US20080220446A1, “Method for Detecting and/or Removing Protein and/or Peptide Comprising a Cross-Beta Structure From an Aqueous Solution Comprising a Protein” (priority 2005, published 2008).

What was measured:
[1] = biological target: T1, sRAGE (Homo sapiens, UniProt Q15109); experiment: Biacore surface plasmon resonance, binding to immobilized sRAGE; details: Hb-AGE 32, albumin-AGE 3.9, amyloid γ-globulins 62.5 μg ml^−1
T1 construct: comprises three domains spanning amino-acid residues 23-325; His-tag (N); thrombin cleavage site (N); made in house; host or cells: 293E cells (printed as 'hamster embryonic kidney cells')
T1 sequence (Q15109 23-325): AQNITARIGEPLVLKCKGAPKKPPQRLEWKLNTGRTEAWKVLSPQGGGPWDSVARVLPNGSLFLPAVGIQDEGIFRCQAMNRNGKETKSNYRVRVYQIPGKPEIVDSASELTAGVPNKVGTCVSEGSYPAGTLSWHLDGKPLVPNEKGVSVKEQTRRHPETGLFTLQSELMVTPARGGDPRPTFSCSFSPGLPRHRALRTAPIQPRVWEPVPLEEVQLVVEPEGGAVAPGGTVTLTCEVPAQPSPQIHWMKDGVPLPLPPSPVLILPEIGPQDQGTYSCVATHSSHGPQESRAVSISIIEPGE
Experimental: Binding of cross-β structure containing peptides/proteins was studied using surface plasmon resonance technology with a Biacore 2000 apparatus (Biacore AB, Uppsala, Sweden). A standardized amine coupling procedure was used to couple proteins with F domains to a CM5 chip (Biacore AB, Uppsala, Sweden). First, the dextran surface of the chips was activated by a 35 μl injection with a 1:1 mixture of 0.1 M N-hydroxysuccinimide (NHS) and 0.4 M N-ethyl-N′-(dimethylaminopropyl)carbodiimide (EDC) at a flow rate of 5 μl min.^−1. Then, the proteins were covalently coupled to the activated dextran surface. Remaining activated groups in each of the four flow channels were blocked by injection of 35 μl of 1 M ethanolamine hydrochloride pH 8.5. EDC, NHS and ethanolamine hydrochloride were obtained from Biacore. On one chip, on channels 1 to 4, buffer (reference channel), the soluble extracellular part of receptor for advanced glycation endproducts (sRAGE), tPA and K2P-tPA were immobilized. […] Binding of albumin-AGE was determined with a solution of 3.9 μg ml^−1 albumin-AGE in running buffer. albumin-AGE was filtered on a Millex-GV 0.22 μm filter unit (Millipore). […] Binding of Hb-AGE was also tested after centrifugation for 10 min. at 16,000*g alternative to filtration. tPA activation before and after filtration was assessed with a Plg-activation assay. […]

[2] = biological target: T2, fibronectin F4,5 (Homo sapiens, UniProt P02751); experiment: Affinity determination ELISA, fibronectin F4,5 on coated (mis)folded proteins; type: binding; details: coated protein as labelled
T2 construct: human fibronectin finger 4,5 (Fn F4,5) fragment; made in house; host or cells: HEK293E
T2 sequence (P02751 182-276 limits assumed): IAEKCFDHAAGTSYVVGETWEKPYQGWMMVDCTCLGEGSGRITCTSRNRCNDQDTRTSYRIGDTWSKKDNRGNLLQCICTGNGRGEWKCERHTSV
From the text: Synthetic genes of human BiP, human fibronectin finger 4,5 (Fn F4,5) fragment, and human tissue-type plasminogen activator finger EGF (tPA F-EGF) fragment were ordered from Geneart (Regensburg, Germany). These DNA constructs were digested using BamHI and NotI, and ligated into vector pABC674 (ABC-expression facility, Utrecht University, The Netherlands), which contains a carboxy-terminal FLAG-tag—His-tag. HEK293E cells were transiently transfected with these constructs using the polyethylene-imine method, and grown for 5-6 days.
Denatured proteins and their native controls BSA (Sigma, A7906), glycated BSA, Hb (Sigma, H7605), glycated Hb, ovalbumin (Sigma, A6741), heat-denatured misfolded ovalbumin, human γ-globulins (Sigma, G4386), heat-denatured misfolded γ-globulins, alkyl-γ-globulins, lysozyme (ICN Biochemicals, 100831) and alkyl-lysozyme were coated on ELISA plates (Greiner Microlon high-binding, 655092) in 50 mM NaHCO3-buffer pH 9.6. The plates were blocked using Blocking reagent (Roche 1112589). […] Bound protein is detected by the FLAG-tag using 1:3000 anti-FLAG-HRP (Sigma A-8592) in PBS-T, or by 1:1000 Ni-NTA-HRP (Qiagen 34530) in PBS-T. The HRP reaction Is performed using the TMB substrate (Biosource 4501103 or Tebu Bio 101TMB100-500), stopped using 10% H2SO4 and absorbance was measured at 450 nm.

[3] = test system: platelets; experiment: Platelet aggregation assay with BSA-AGE spiked plasma before and after depletion; type: cell-based, human; details: 512-fold diluted plasma spiked with 250 μg/ml, tenfold diluted
Experimental: Results are compared to platelet activating properties of the spiked plasma before depletion of BSA-AGE.
Freshly drawn human aspirin free blood was mixed gently with citrate buffer to avoid coagulation. Blood was spinned for 15′ at 150*g at 20° C. and supernatant was collected; platelet rich plasma (PRP) with an adjusted final platelet number of 200,000 platelets/μl. Platelets were kept at 37° C. for at least 30′, before use in the assays, to ensure that they were in the resting state. For the aggregometric assays, 270 μl platelet solution was added to a glass tube and prewarmed to 37° C. A stirring magnet was added and rotation was set to 900 rpm, and the apparatus (Whole-blood aggregometer, Chrono-log, Havertown, Pa., USA) was blanked. […] Aggregation was followed in time by measuring the absorbance of the solution, that will decrease in time upon platelet aggregation. As a positive control synthetic thrombin receptor activating peptide TRAP was used. Aggregation was recorded for 15′ and expressed as the percentage of the transmitted light (0-100%).

- binding to immobilized sRAGE [1]: bind
- affinity for fibronectin F4,5 [2]: High affinities
Substance: albumin-AGE: advanced glycation end-product modified bovine serum albumin
- platelet aggregation [3]: Platelets readily aggregate
